Measurements as given in paper PMC12774414.

Molecular target: LssaCA-His (L. striatellus salivary carbonic anhydrase lacking the signal peptide, C-terminal His tag) (Laodelphax striatellus)
Test: MST; 10 µM LssaCA^sp- (His-fusion) labelled with NT-647 (RED-NHS), added to serially diluted GST-NP or MBP-OsTLP^sp-; initial concentration 40 µM, 0.1% (v/v) Tween 20; Monolith NT.115; KD Fit

Substance | Kd [nM]
GST-NP (rice stripe virus nucleocapsid protein, GST fusion) (natural protein) | 2700
MBP-OsTLP (Oryza sativa thaumatin-like protein without its signal peptide, N-terminal MBP fusion) (enzyme) | 1300
